# Measured values taken from paper PMC12477886.
# Experiments:
# Assay in all cases: BLI
# [1] = biological target: M15 single reverted mutant T57I (light chain I57 reverted to germline T) (human)
# [2] = biological target: M15 single reverted mutant S32I (light chain I32 reverted to germline S) (human)
# [3] = biological target: M15 single reverted mutant G51A (light chain A51 reverted to germline G) (human)
# [4] = biological target: M15 triple mutant (light chain S32I, G51A and T57I all reverted to germline) (human)
substance,measurement,setting,value
SARS-CoV-2 WA1/2020 S2 protein (stabilized prefusion spike S2 trimer) (from UniProt P0DTC2) (domain or fragment),fold decrease in binding affinity compared with M15,[1],1.02 fold
same,fold decrease in binding affinity compared with M15,[2],1.45 fold
same,fold decrease in binding affinity compared with M15,[3],1.88 fold
same,fold decrease in binding affinity compared with M15,[4],12 fold
